# Results from publication PMC11344771, “The Chlamydia pneumoniae effector SemD exploits its host’s endocytic machinery by structural and functional mimicry” (Nature Communications, 2024).
# What was measured:
# SemDΔAPH_(67-382) = biological target: T1, SemDΔAPH_(67-382) (Chlamydia pneumoniae); experiment: SEC-SAXS; Superdex200 increase 10/300 GL, PBS pH 8.5 + 3 % glycerol, 20 °C; 8 mg/ml SemDΔAPH, 10 mg/ml BR-GBD, 8 mg/ml SemDΔAPH + BR-GBD, 3.3 mg/l SemDΔAPH + SNX9-SH3; details: both partners purified
# T1 construct: SemD of Chlamydia pneumoniae (382 aa), N-terminally truncated up to and including the APH motif; residues 67-382 (G67-E382); from synthetic semD DNA codon optimised for E. coli; Monomer in solution by SAXS; also called SemDΔAPHHis; source: E. coli BL21 (DE3), purified (Ni-NTA Agarose, SEC); not shown: 10xHis, C-terminal, kept
# [1] = biological target: T2, BR-GBD fused to GFP (BR-GBD_(GFP-His)) (Rattus norvegicus, UniProt O08816 142-273); experiment: pull-down; GFP-Trap agarose, BR-GBD_(GFP-His) or GFP alone as bait, equimolar test protein, 5 min RT then 30 min 4 °C, washed 6x with 10 mM Tris-HCl, 200 mM NaCl, pH 8.5; immunoblot, Elution:FT ratio normalised to the bait; details: both partners purified
# T2 construct: amplified from GFP-N-WASP (Addgene #47406), in pDS94; source: E. coli BL21 (DE3), purified (Ni-NTA Agarose); not shown: GFP, C-terminal, kept; 10xHis, C-terminal, kept
# T2 sequence (O08816 142-273): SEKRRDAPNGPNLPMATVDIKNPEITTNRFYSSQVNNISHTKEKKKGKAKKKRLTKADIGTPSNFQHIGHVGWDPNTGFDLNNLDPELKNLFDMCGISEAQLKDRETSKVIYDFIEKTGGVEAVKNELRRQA
Binder,stoichiometry N (SemDΔAPH_(67-382)),normalised Elution:FT ratio [1] [%]
SNX9-SH3 (domain or fragment) MATKARVMYDFAAEPGNNELTVNEGEIITITNPDVGGGWLEGRNIKGERGLVPTDYVEILPS,1,–
"Cdc42 bound to a non-hydrolysable GTP analogue (Cdc42_(GppNHp)) (natural protein, human CDC42 in pGEX-4T-1; also called Cdc42_(mGppNHp); active Cdc42; source: E. coli Rosetta, purified (Glutathione sepharose, thrombin cleavage), loaded with GppNHp or mGppNHp) not shown",–,~100
